Measured values: PMC9122207, “PTEN differentially regulates endocytosis, migration, and proliferation in the enteric protozoan parasite Entamoeba histolytica” (PLoS Pathogens, 2022)

How the values were obtained:
Assay in all cases: malachite green phosphate release, Lineweaver-Burk
Type in all cases: biochemical, Entamoeba histolytica
Conditions in all cases: 100 mM MOPS pH 6.0, 37°C, 40 min, di-C8 lipid
[1] = system: CCCCCCCC(=O)OC[C@H](COP(=O)(O)O[C@H]1[C@H](O)[C@@H](OP(=O)(O)O)[C@H](OP(=O)(O)O)[C@@H](OP(=O)(O)O)[C@H]1O)OC(=O)CCCCCCC
Text: (§1) malachite green phosphate release, Lineweaver-Burk on EhPTEN1

[2] = system: CCCCCCCC(=O)OC[C@H](COP(=O)(O)O[C@H]1[C@H](O)[C@@H](O)[C@H](OP(=O)(O)O)[C@@H](OP(=O)(O)O)[C@H]1O)OC(=O)CCCCCCC
Text: as §1

[3] = system: CCCCCCCC(=O)OC[C@H](COP(=O)(O)O[C@@H]1[C@H](O)[C@H](OP(=O)(O)O)[C@@H](O)[C@H](OP(=O)(O)O)[C@H]1O)OC(=O)CCCCCCC
Text: as §1

EhPTEN1 (Entamoeba histolytica HM-1:IMSS)
Km [1]: 92.5 ± 4.72 µM | Vmax [1]: 0.0169 µmol/min/mg | kcat [1]: 0.00517 ± 0.0005 s⁻¹ | Km [2]: 292 ± 18.8 µM | Vmax [2]: 0.00602 µmol/min/mg | kcat [2]: 0.00183 ± 0.000333 s⁻¹ | Km [3]: 161 ± 20.1 µM | Vmax [3]: 0.0084 µmol/min/mg | kcat [3]: 0.0025 ± 0.000167 s⁻¹
